Experimental data reported in the supplement of paper PMC10126150.
± gives the standard deviation of the averaged measurements.

test system: ATP; experiment: switch fluorescence ratio, 500 uM ATP over buffer (Cy3 cluster intensity, sum of 5 cycles each) (fold (ratio)); higher = stronger signal-on switching upon ATP binding; sequences stand for … in TCGTCGGCAGCGTCAGATGTGTATAAGAGACAGTTTTTTTTTTTTTTTTTTTTTTTTT…TC; settings: aptamer strand: ATP DNA aptamer (quencher-CACCTGGGGGAGTATTGCGGAGGAAGG + anchor), 100 nM annealed; ATP concentration: 500 uM
Method in brief: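 Values give the fluorescence ratio for each switch-domain sequence, averaged from per-cluster ratios of summed target-cycle to summed buffer-cycle Cy3 intensity. The Cy3-labelled switching-strand clusters sat on a modified Illumina MiSeq flow-cell, were annealed to 100 nM quencher-labelled ATP aptamer, and were imaged in selection buffer, then after 15 min with 500 uM ATP at 22 °C. Five cycles ran with NaOH stripping and re-annealing between them, and clusters outside 100-1000 RFU were excluded.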
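Further: ATP exposure 15 min at 22 °C before imaging.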

Sequence | switch fluorescence ratio
CTATGCAGTG | 1.03 ± 0.024
TTGGCGGGCG | 0.979 ± 0.034
ACCCCAAATG | 1.124 ± 0.0098
ATCGTTAAGC | 1.03 ± 0.022
GGTTCTGTGT | 0.99 ± 0.012
GGGGTTTCTT | 0.987 ± 0.048
CTTGCGGGGA | 1.0408 ± 0.00045
GCAAGATTTC | 1.04 ± 0.013
GAACTTTTTA | 0.981 ± 0.011
AAATTTTAGG | 1.034 ± 0.0013
TCGGTTTAAC | 1.04 ± 0.038
GCTTACGTCA | 1.05 ± 0.086
TTAGTAGTTT | 0.976 ± 0.015
CTATTATCTG | 1.01 ± 0.024
TTCTCGGGGG | 1.04 ± 0.043
GTGTTTCCTG | 0.994 ± 0.028
GGGGTCGTGT | 0.992 ± 0.023
AAGTTATGCT | 1 ± 0.014
TTAATCTGTA | 0.99 ± 0.068
GCCCTATGTG | 1.25 ± 0.034
TGGCAGACGG | 1.01 ± 0.038
CTGGGTGGCG | 1.01 ± 0.069
AACTGTTTCG | 0.9707 ± 0.0013
GAATGGGATC | 0.9698 ± 0.0059
TTTGATCGGG | 0.978 ± 0.015

Sequence | switch fluorescence ratio
TATTAACGAG | 0.995 ± 0.032
CATTTTAGAG | 0.98256 ± 0.00032
AAATGTGGAG | 0.984 ± 0.021
GGGTTGACGC | 1.01 ± 0.013
TTTTGGAAGA | 0.983 ± 0.039
CGGGGTCTGG | 0.978 ± 0.015
GGTCTTTTGG | 0.981 ± 0.013
CATGCTTGGG | 0.999 ± 0.012
TTTTGGCTGG | 1.01 ± 0.052
GTTTTGTTGT | 0.99 ± 0.027
CAAGGGTCCG | 0.991 ± 0.045
TACCCGGGGT | 0.9827 ± 0.0097
TAGGGTGCTT | 1.04 ± 0.036
GAAATCGGAT | 0.972 ± 0.016
CTGGGAGATT | 1.02 ± 0.039
ACCTGGCGTA | 1.04 ± 0.0016
GTAGTAGGGT | 1.01 ± 0.035
TCCGAAAAAG | 1.33 ± 0.44
TTTTCAGTGT | 0.996 ± 0.029
GATGAACGTC | 1.11 ± 0.19
ATAGTGTGTG | 1.004 ± 0.008
GTTGGAGTGC | 0.9817 ± 0.0017
TTTTGTTACA | 1.011 ± 0.0029
AAAGTGAGGG | 0.986 ± 0.013
CGCGTGGCGG | 0.999 ± 0.024

Sequence | switch fluorescence ratio
TGGGCGTTGC | 1.01 ± 0.018
CTACTTGAGT | 0.985 ± 0.019
TAGGATTGGG | 0.9894 ± 0.0053
TTTTTGTAAA | 0.9936 ± 0.003
TGGATTCCTA | 1.002 ± 0.01
AGGTTTTATA | 0.9919 ± 0.0094
ATATACATGG | 1.01 ± 0.035
AAAGGATGTT | 0.995 ± 0.041
GGTTGGCAGG | 1 ± 0.038
TACTGCGGAA | 1.79 ± 1.2
CGTATTGCCA | 1 ± 0.025
TGGTTTGTAT | 1 ± 0.029
TTTTTGTAT | 0.979 ± 0.015
CCTTCTGGGG | 1.12 ± 0.051
CGAGGGTACG | 1 ± 0.032
CGCAGGCCTC | 1.47 ± 0.062
GGGCAACTGA | 1.01 ± 0.024
TGGAAGTGGG | 1.03 ± 0.042
AGGGATCTTT | 0.963 ± 0.038
GGGGGACTTT | 1.08 ± 0.08
TTATTGGTA | 1.04 ± 0.016
CTGAGTTTGG | 1.07 ± 0.061
TTATAGATTG | 1 ± 0.019
TTTCGGTTGG | 0.999 ± 0.032
AAAACACAGA | 1.15 ± 0.14

Sequence | switch fluorescence ratio
GATGAAATGG | 1.02 ± 0.013
CGTATGGGGA | 1 ± 0.023
GCGGGGCCTG | 0.993 ± 0.051
AAATGTAAGG | 0.99 ± 0.034
GGATGCTGAT | 1 ± 0.047
CCGGGTAGTA | 1.12 ± 0.11
GGTGTAGAAC | 1 ± 0.049
GAAATACTCT | 1.44 ± 0.12
TCTAGAATGG | 0.982 ± 0.033
GGCTGACATT | 0.979 ± 0.046
TACTCACTGT | 1.219 ± 0.0069
TTATTGGGGG | 0.982 ± 0.037
AAGTCGGGGG | 1 ± 0.029
TAAGTTGTGT | 0.972 ± 0.036
CAGTAGCGGT | 1.97 ± 0.35
GTATTTTGCT | 0.979 ± 0.031
AGGGTTTCAG | 0.98 ± 0.026
AAGGGGGCAG | 0.994 ± 0.025
TCGGAATATT | 1.09 ± 0.062
GGTCGAGCTA | 0.996 ± 0.042
TATCAAAGAT | 1 ± 0.02
CATTATCATT | 0.97 ± 0.018
GTCGAGGGGG | 0.997 ± 0.05
GCGTGTCCGT | 1.01 ± 0.025
TGGGGGCGGA | 1.01 ± 0.032

Sequence | switch fluorescence ratio
AGGGTAATTT | 1.043 ± 0.0063
AGGGCACAGT | 0.995 ± 0.016
AAAAGGTCAG | 1.01 ± 0.021
TCCATAAGGG | 1.01 ± 0.023
TCCGACGTAG | 1.19 ± 0.31
TCAGGAGGTG | 1.07 ± 0.019
TCTCTTTAAT | 0.997 ± 0.021
GAGGTCCAGC | 1.14 ± 0.074
TTTTATCACT | 1.03 ± 0.034
AGGTCTGAAA | 1.04 ± 0.042
TAGGGTAGCG | 0.99 ± 0.012
TCGGACGACC | 1.15 ± 0.12
TAGGGATGAT | 0.9705 ± 0.0026
TTGTATGGCA | 0.973 ± 0.027
GGACTTTTGT | 0.984 ± 0.02
GGGGGGCACC | 0.994 ± 0.021
AAAAGCGTTG | 0.999 ± 0.013
TAACAGTAGG | 1.05 ± 0.038
AAGGTCATAA | 1.01 ± 0.053
CATTCTGATC | 1 ± 0.056
TCAACGGTCT | 0.9955 ± 0.0048
CAATGGGGGG | 1.02 ± 0.03
CCACTTATGC | 1.13 ± 0.089
TTATTCCCGA | 0.9791 ± 0.0095
GATAAGTCGT | 0.991 ± 0.032

Sequence | switch fluorescence ratio
ATGTGGGAGT | 0.979 ± 0.034
AAATGACGGG | 1.005 ± 0.0076
GGTCCGGGCT | 1 ± 0.02
GGGGACTAGT | 0.957 ± 0.043
AGGGCGGAGT | 0.994 ± 0.022
CTGAGTTTGA | 1 ± 0.013
ATGGTGTCAG | 0.994 ± 0.046
GTAAATAGGC | 0.993 ± 0.023
ACGGGTAAAT | 1.01 ± 0.036
TTAAAAATTG | 0.957 ± 0.016
TTGGATTGGG | 1.02 ± 0.064
AACAGTTCTG | 0.986 ± 0.027
AGACGGGATG | 0.973 ± 0.084
GTTTTTTGCG | 0.999 ± 0.036
GTAGGGGCCC | 1.02 ± 0.032
CTTTAACGGT | 1 ± 0.026
TCTATTTTTT | 1.01 ± 0.014
TTTTGGTTAC | 1.04 ± 0.055
CATGAGAAGA | 0.999 ± 0.029
GTGTCCTGTA | 0.998 ± 0.072
GTAATACCAA | 1.03 ± 0.058
CTTATTTCCG | 1.032 ± 0.0096
TGATGTAGCA | 0.979 ± 0.033
GTGTTAGCTG | 1.02 ± 0.028
TTAGCAGGGA | 1 ± 0.019

Sequence | switch fluorescence ratio
GGCATTGGGG | 1.03 ± 0.029
ATGCCGTGGC | 1.02 ± 0.033
CAAGGGGGA | 0.995 ± 0.02
GCTGAGGCAA | 1.06 ± 0.015
TTCCAGTTTT | 1 ± 0.04
TTTCTGGTT | 1.01 ± 0.038
GACTTAGTGT | 1.012 ± 0.0036
ATGGTAGCCG | 0.981 ± 0.012
AAGGGATTGG | 0.981 ± 0.031
ACCCCATGTT | 1.86 ± 1
ACACTCAGAG | 1.019 ± 0.004
GGACGTTGAG | 0.985 ± 0.021
TATACTTGCC | 1.04 ± 0.06
GAATGGCCAG | 0.992 ± 0.034
AAAGGCTGGG | 1.04 ± 0.087
GGTTGTTTTT | 1.01 ± 0.032
TGCGGTGATG | 0.985 ± 0.016
GGGGATGGTG | 1 ± 0.035
AGGTTAATCT | 1.01 ± 0.018
ACTTGTAAAC | 1.01 ± 0.025
ATAGTACTCG | 1.06 ± 0.057
TCGTGAGGGG | 1.02 ± 0.047
AATCGTTTTT | 1.02 ± 0.12
TTTTCCT | 1.04 ± 0.02
GTTGTGGGTG | 1.03 ± 0.018

Sequence | switch fluorescence ratio
TCCCGCTGGG | 1.17 ± 0.22
GCATGGTTGG | 0.976 ± 0.034
ACGTTTTTAG | 1 ± 0.013
TAACGGGGCA | 0.9842 ± 0.003
TTCTAGGGCA | 1.02 ± 0.038
TTGTTGGGCT | 0.981 ± 0.039
GTTTTTTGGC | 0.97 ± 0.058
GGACGCATGG | 1.33 ± 0.071
CTCTGGGTTG | 1.07 ± 0.13
ACTTCTTTGT | 1.1 ± 0.11
TACCATTTTG | 1 ± 0.028
GTCAGCTAAC | 1.48 ± 0.053
TCAGGGGTGC | 1.09 ± 0.049
ACGGTTTGCG | 0.979 ± 0.011
TAAGGAGTGC | 0.955 ± 0.12
ATAGGATCAC | 1.02 ± 0.028
TCATGGTCTG | 1 ± 0.012
CAATGGTGGT | 1.01 ± 0.028
GGCTTAATGA | 0.971 ± 0.029
AATTGTTTAG | 0.982 ± 0.034
TTAGGTGGCG | 1.04 ± 0.018
ACATTATTTT | 1.02 ± 0.025
AAAGACGACA | 1.27 ± 0.29
CGTATCAATT | 1.003 ± 0.004
GGTCCTAATA | 1 ± 0.026
